According to patent publication US20260193344A1 (H LUNDBECK A S, published 2026):

T1: ACTH 1-24 (human)
T1 peptide: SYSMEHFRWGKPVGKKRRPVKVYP

T2: human ACTH 1-39 (human, not fully specified; N-terminal biotin in the ELISA and HTRF binding assays (p-1487, p-1488); 125I on Tyr23 in Example 9 (p-1542); unlabelled in SPR. Letters unchanged.)
T2 peptide: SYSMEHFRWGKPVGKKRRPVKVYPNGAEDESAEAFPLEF

T3: human alpha-MSH (ACTH 1-13) (human, not fully specified; ends and bridges not checked)
T3 peptide: Ac-SYSMEHFRWGKPV-NH2

B1: Ab13 (antibody, human IgG1, kappa, N297A, V domains shown)
VH: QQLEESGGGLVKPGGTLTLTCTASGFSFSSGYDICWARQGPGKGLEWIGCIDTGSGNTYYASWAKGRFTMSRTSSTTVTLQVTSLTAADTATYFCAKGISSIWGPGTLVTVSS
VL: DIVMTQTPASVSEPVGGTVTIKCQASQTISSDLAWYQQKPGQPPKLLIYAASKLTSGVSSRFKGGGTGTQFTLTISDLECADAATYYCQTYYDIIDDGCTFGGGTEVVVKR
B2: Ab7 (antibody, V domains shown)
VH: QSVEESGGRLVTPGTPLTLTCTVSGFSLSSYAMSWVRQAPGEGLEWIGIISDSGSTYYASWAKGRFTISKTSTTVDLRITSPTTEDTATYFCAREPEYGYDDYGDWVSDLWGQGTLVTVSS
VL: DIVMTQTPASVEAAVGGTVTIKCQASQSISDYLSWYQQKPGQPPKLLIYRASTLASGVPSRFKGSGSGTQFTLTISDLECADAATYYCQSYYYSSSITYRNAFGGGTEVVVKR
notes: Full-length rabbit/human chimeric antibody, HEK-293
B3: Ab6 (antibody, V domains shown)
VH: QSVEESGGRLVTPGTPLTLTCTVSGFSLTDYAMSWVRQAPGEGLEWIGIISDSGSTYYASWAKGRFTFSKTSTTVDLRITSPTTEDTATYFCAREPEYGYDEYGDWVSDLWGPGTLVTVSS
VL: DIVMTQTPASVEAAVGGAVTIKCQATQSIGNNLAWYQQKPGQPPKLLIYRASTLASGVPSRFKGSGSGTEFTLTISDLECADAATYYCQSYYYSSSITYHNAFGGGTEVVVKR
B4: Ab9 (antibody, V domains shown)
VH: QSVEESGGRLVTPGTPLTLTCTVSGFSLNSYAMSWVRQAPGEGLEWIGIISDSGRTYYASWAKGRFTISKTSTTVDLKITSPTTEDTATYFCAREPEYGYDDYGDWVSDLWGPGTLVTVSS
VL: DVVMTQTPASVEAAVGGTVTIKCQASQSISSYLSWYQQKPGQPPKLLIYRASTLASGVPSRFKGSGSGTQFTLTISDLECADAATYYCQSYYYSSSITYRNAFGGGTEVVVKR
B5: Ab5 (antibody, V domains shown)
VH: QSVEESGGRLVTPGTPLTLTCTVSGFSLSSYAMSWVRQAPGEGLEWIGIISDSGSTYYASWAKGRFTISKTSTTVDLKITSPTTEDTATYFCAREPEYGYDDYGDWVSDLWGQGTLVTVSS
VL: DIVMTQTPASVSEPVGGTVTIKCQASQSISSYLSWYQQKPGQPPKLLIYRASTLASGVPSRFKGSGSGTQFTLTISDLECADAATYYCQSYYYSSSITYRNAFGGGTEVVVKR
B6: Ab1 (antibody, V domains shown)
VH: QSVKESGGRLVTPGTPLTLTCTVSGFSLSNYDMIWVRQAPGKGLESIGMIYDDGDTYYASWAKGRFTISKTSTTVDLKIISPTTEDTATYFCVKGVSNHWGPGTLVTVSS
VL: DVVMTQTPASVEAAVGGTVTIKCQASQSISSYLAWYQQKPGQPPKLLIYSASTLASGVPSRFKGRGSGTEFTLTISDLECADAATYYCQSYDGSSGSSYGVGFGGGTEVVVKR
notes: as for B2
B7: Ab3 (antibody, V domains shown)
VH: QSLEESGGRLVTPGTPLTLTCTVSGSSLSNFDMIWVRQAPGKGLESIGIIYDFGSTYYASWAKGRFTISRTSSTTVDLKIISPTIEDTATYFCVKGVSNIWGQGTLVTVSS
VL: DVVMTQTPASVEAAVGGTVTIKCQASEDISSNLAWYQQKLGQPPKLLIYSASTLASGVPSRFKGSGSGTEFTLAISDLECADAATYYCQSYDGSSSSSYGIGFGGGTEVVVKR
B8: Ab11 (antibody, V domains shown)
VH: QSLEESGGRLVTPGTSLTLTCTASGFSLSAYDILWVRQAPGKGLESIGMMYDDGDTYYATWAKGRFIISRTSTTMDLKIISPTTEDTATYFCVKGVSNIWGQGTLVTVSS
VL: DIVMTQIPASVEAAVGGTVTIKCQASQSIDSSLAWYQQKPGQPPKLLIYSASTLASGVPSRFKGSGSGTEFTLTIGDLECADAATYYCQSYDGSSSSYYGIGFGGGTEVVVKR
B9: Ab10 (antibody, V domains shown)
VH: QSVEESGGRLVTPGTPLTLTCTVSGFSLSSADMIWVRQAPGKGLESIGMIYDDGDTYYATWAKGRFTISKTSTTVDLKIISPTTEDTATYFCVKGVSSVWGQGTLVTVSS
VL: DVVMTQTPASVEAAVGGTVTINCQASENIYRSLAWYQQKPGQPPKLLIYSASTLASGVPSRFKGSGSGTEFTLTISDLECADAATYYCQSYDGSSSSSYGVGFGGGTEVVVKR
B10: Ab12 (antibody, V domains shown)
VH: QSVEESGGRLVTPGTPLTLTCTVSGSSLSDYDMIWVRQAPGKGLESIGIIYDDGDTYYATWAKGRFTISKTSTTVDLRIISPTTEDTATYFCVKGVSNMWGPGTLVTVSS
VL: DVVMTQTPSSVSAAVGGTVTIKCQASQSIGSSLAWYQQKPGQRPKLLIYAASTLASGVPSRFKGSGSGTEFTLTISDLECADAATYYCQSYDGSSSSSYGVGFGGGTEVVVKR
B11: Ab2 (antibody, V domains shown)
VH: QSVEESGGRLVTPGTPLTLTCTVSGFSLSKYDMIWVRQAPGKGLESIGIIYDDGDTYYASWAKGRFTISQTSTTVDLKIISPTTEDTATYFCVKGVSNIWGQGTLVTVSS
VL: DVVMTQTPASVEAAVGGTVTIKCQASQSISNYLAWYQQKTGQPPKLLIYSASTLASGVPSRFKGSGSGTEFTLTISDLECADAATYYCQSYEGSSSSSYGVGFGGGTEVVVKR
B12: Ab13.H (antibody, human IgG1, kappa, N297A, V domains shown)
VH: EVQLVESGGGLVQPGGSLRLSCAASGFTVSSGYDICWVRQAPGKGLEWIGCIDTGSGNTYYASSAKGRFTMSRDNSKNTVYLQMNSLRAEDTAVYYCAKGISSIWGQGTLVTVSS
VL: DIQMTQSPSTLSASVGDRVTITCQASQTISSDLAWYQQKPGKAPKLLIYAASKLTSGVPSRFSGSGSGTEFTLTISSLQPDDFATYYCQTYYDIIDDGATFGGGTKVEIKR

How the values were obtained:
ACTH 1-24 = target: T1, ACTH 1-24; assay: cell-based or functional assay
human ACTH 1-39 [1] = target: T2, human ACTH 1-39; assay: cell-based or functional assay
human ACTH 1-39 [2] = target: T2, human ACTH 1-39; assay: cell-based or functional assay
human ACTH 1-39 [3] = target: T2, human ACTH 1-39; assay: cell-based or functional assay
[4] = target: T3, human alpha-MSH (ACTH 1-13); assay: SPR (ProteOn XPR36), antibody immobilized
Procedure: (§1) Antibody was immobilized to the surface of general amine coupling (GLC or GLM) Chips (Bio-Rad). […] Surfaces were regenerated between analyte queries using 10 mM glycine at pH 2.0.

human ACTH 1-39 [5] = target: T2, human ACTH 1-39; assay: cell-based or functional assay
human ACTH 1-39 [6] = target: T2, human ACTH 1-39; assay: SPR (ProteOn XPR36), antibody immobilized
Procedure: as §1

Binder | IC50, ACTH 1-24 induced cAMP, MC2R cells (ACTH 1-24) | IC50, ACTH-induced cortisol, Y1 cells (human ACTH 1-39 [1]) | IC50, ACTH-induced cAMP reporter, MC1R cells (human ACTH 1-39 [2]) | IC50, ACTH-induced cAMP, MC2R cells (human ACTH 1-39 [3]) | kon [4] | IC50, ACTH-induced cAMP, MC3R cells (human ACTH 1-39 [5]) | IC50, ACTH-induced cAMP, MC4R cells (human ACTH 1-39 [5]) | IC50, ACTH-induced cAMP, MC5R cells (human ACTH 1-39 [5]) | kon (human ACTH 1-39 [6])
B1 | 1 nM | – | – | – | – | – | – | – | –
B2 | – | 2.49 nM | 1.29 nM | 0.09 nM | 130000 M⁻¹ s⁻¹ | 64.2 nM | 49.7 nM | 1100 nM | –
B3 | 0.1 nM | 1.44 nM | 1.04 nM | 0.03 nM | – | 62.8 nM | 55.2 nM | 1000 nM | –
B4 | – | 3.47 nM | – | 0.12 nM | – | – | – | – | –
B5 | – | 3.49 nM | 1.96 nM | 0.11 nM | – | 58.1 nM | 43.4 nM | 1000 nM | –
B6 | – | 2.36 nM | 2.38 nM | 0.14 nM | – | 101 nM | 56.4 nM | 1100 nM | 1e+06 M⁻¹ s⁻¹
B7 | 0.8 nM | 7.72 nM | 4.12 nM | 0.29 nM | – | 58.7 nM | 54.2 nM | 1100 nM | –
B8 | – | 1.53 nM | 1.49 nM | 0.03 nM | – | 108 nM | 49.4 nM | 4200 nM | –
B9 | – | 5.98 nM | 2.14 nM | 0.16 nM | – | 133 nM | 66.3 nM | 5400 nM | –
B10 | – | 2.68 nM | 1.66 nM | 0.05 nM | – | – | – | – | –
B11 | 1.3 nM | – | 3.62 nM | 0.25 nM | – | 79 nM | 54.5 nM | 1100 nM | –
B12 | 0.3 nM | – | – | – | – | – | – | – | –
